Measured values as given in article PMC5651819, “AtSPX1 affects the AtPHR1–DNA-binding equilibrium by binding monomeric AtPHR1 in solution” (Biochemical Journal, 2017).

Target: T1, MBP–AtdPHR1 (DNA-binding domain and coiled-coil domain of AtPHR1 fused to maltose-binding protein) (Arabidopsis thaliana, UniProt Q94CL7 208-362)
T1 construct: cloned in pMAL-c2x via BamHI and HindIII; the methods print 208–362, and the predicted mass of 60 651 fits 208–362 with MBP; also called MBPdAtPHR1; MBPdPHR1; source: E. coli BL21-gold (DE3), purified (amylose resin, IEX on HiTrap Q-HP); not shown: MBP, N-terminal, kept
Test: pull-down; MBP–AtdPHR1 from cell lysate immobilised on amylose matrix and washed, incubated with affinity-purified GST–AtSPX1 for 2 h at 4°C, eluted with 10 mM maltose, anti-GST blot; buffer with Pi (PBS pH 7.4, 200 mM NaCl, 1 mM EDTA, 1 mM DTT), compared with buffer without Pi (20 mM Tris pH 7.5, 200 mM NaCl, 1 mM EDTA, 1 mM DTT)
Settings: both partners purified

T1 sequence (Q94CL7 208-362): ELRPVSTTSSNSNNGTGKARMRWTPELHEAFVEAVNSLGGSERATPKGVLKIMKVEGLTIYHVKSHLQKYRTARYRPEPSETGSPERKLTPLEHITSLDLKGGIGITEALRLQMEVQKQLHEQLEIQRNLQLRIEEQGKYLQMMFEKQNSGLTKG

B1: GST–AtSPX1 (N-terminal GST-tagged full-length AtSPX1) (natural protein, Arabidopsis thaliana, UniProt Q8LBH4 1-256, looked up)
chain: MKFGKSLSNQIEQTLPEWQDKFLSYKELKKRLKLIGSKTADRPVKRLRLDEFSVGISKEEINFIQLLEDELEKFNNFFVEKEEEYIIRLKEFRDRIAKAKDSMEKMIKIRKEIVDFHGEMVLLENYSALNYTGLVKILKKYDKRTGDLMRLPFIQKVLQQPFYTTDLLFKLVKESEAMLDQIFPANETESEIIQAELSEHKFMESLHMKSTIAALRVLKEIRSGSSTVSVFSLPPLQLNGLDETWKKIPLLEQEAK
notes: AtSPX1, Arabidopsis thaliana, At5G20150.1, full-length cDNA in pGEX-2T via BamHI and EcoRI; also called GST–SPX1; not shown: GST, N-terminal, kept
- fold more in elution fraction E1 in the presence of phosphate than in its absence: 1.5 fold
- fold more in elution fraction E2 in the presence of phosphate than in its absence: 3.5 fold
